Molecular target: uPAR (Homo sapiens, UniProt Q03405)
Experiment: CO-IP experiment with uPAR
Type: binding
Conditions: in vivo
Method: Steps of method of CO-IP experiment: Non-denaturing lysate was added to 293T cell culture plate (Pricella, Cat. No.: CL-0005), and the cells were completely lysed at 4° C. The lysate was centrifuged at 12,000 rpm for 10 min and the supernatant was collected. The corresponding antibody was added to the obtained non-denatured protein solution, which was incubated overnight at 4° C. Pierce™ protein A/G magnetic agarose (Thermo Fisher Scientific, Inc.) were washed with lysis buffer, followed by addition pre-treated beads to the cell lysate, and incubation at room temperature for 2 hours. […] The band of interest was detected by Western blotting.
In order to explore how GhJAZ1 enters cancer cells, we cloned the genes of most tumor surface receptors, including uPAR (NCBI database accession number of NM_002659.4), CCK1R (NP_000721.1), CCK2R (NP_001350481.1), HER2 (NP_004439.2), GRPR (NP_005305.1), MUC1 (NP_001358649.1), VEGFR1 (NP_002010.2), Insulin receptor (NM_000208.4), NTR (XM_011528827.2), PSMA (XM_017017432.1), TFR1 (NM_001128148.3), TFR2 (NM_003227.4), PEPT1 (NM_005073.4), APN (NM_001150.3). […] We detected the interaction of GhJAZ1 with uPA (as the ligand of uPAR, NCBI database accession number of NP_002649.2) and uPAR by yeast two hybrid (the steps of the experiment as Example 3). […]

Chain of uPAR (Q03405 23-305): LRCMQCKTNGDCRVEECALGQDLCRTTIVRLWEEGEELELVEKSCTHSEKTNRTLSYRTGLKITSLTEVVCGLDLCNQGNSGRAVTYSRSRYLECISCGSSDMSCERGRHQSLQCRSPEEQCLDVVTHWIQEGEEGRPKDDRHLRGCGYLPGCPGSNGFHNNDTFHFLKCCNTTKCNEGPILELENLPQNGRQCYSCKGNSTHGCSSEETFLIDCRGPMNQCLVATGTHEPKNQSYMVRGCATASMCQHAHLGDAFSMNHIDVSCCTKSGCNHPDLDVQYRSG

B1: GhJAZ1: cotton JAZ1 protein, gene number Gh_A05G0260, sequence SEQ ID No. 4; prokaryotically expressed with His tag, about 30 KD (protein)
chain: MSSCSESTAMKPARSPEKPSFAQTCNLLSQYLKEKGSFGDLSLGMTCNVEANGTPVVPPPTMNLFPLNDKSDDVCGRNGGNPKNLTSMDLFPQQAGLASKDDSPNKLEPQTAPMTIFYGGQVIVFNDFPANKAKEIMLLASNSSSQSNNSFNPIPFTSSIARSPIESSIGVPPTSKPVHPAQRAVPGDLPIARRASLHRFLEKRKDRITAKAPYQINNSAAAPSLSGDNKSWLGLAAQSP
modifications: His tag
notes: prokaryotically expressed with His tag, about 30 KD
interaction with uPAR: interacts

From US20240279288A1, “APPLICATION OF PLANT JAZ PROTEINS AND DERIVED POLYPEPTIDES IN PREVENTION AND TREATMENT OF HUMAN AND ANIMAL TUMORS” (ANYANG INSTITUTE OF SINO-COTTON INDUSTRY INNOVATION, priority 2021, published 2024)
